According to patent US20250051759A1, “METHODS AND MOLECULES FOR RNA INTERFERENCE (RNAi)” (BOEHRINGER INGELHEIM INTERNATIONAL GMBH, priority 2021, published 2025):
Entries after “also recorded” stand apart in the source; their conditions may differ.

Tests used:
[1] = system: RN2 (AML) cells; experiment: Competitive proliferation assay; assay type: cell-based, mouse; details: monitored for 8 days, no endogenous target gene
Method: (§1) The 3 best-performing ARTi-shRNAmirs were analyzed for their effects on proliferation of diverse mouse cell lines originating from different tissues. This experimental step monitors potential off-target effects. Should an off-target, relevant to the proliferative capacity be knocked down, a decrease in cellular fitness would be expected. NIH 3T3 (embryonic fibroblasts), EPP2 (PDAC) and RN2 (AML) cells were transduced with ARTi-shRNAs or validated control shRNAs. Subsequently, the percentage of shRNA expressing cells was monitored via flow cytometry in regular intervals for 8 days in competitive co-culture assays. For competitive proliferation assays, NIH 3T3, EPP2 and RN2 cells were retrovirally transduced with shRNAmir expression plasmids and initial infection levels were determined by flow cytometry based on mCherry expression 4 days post transduction (Day 0). The percentage of infected cells was then further monitored in regular intervals to determine the effects of shRNA expression in the absence of an endogenous target gene for the ARTi-shRNAmirs.

[2] = system: NIH 3T3, EPP2 and RN2 cells; experiment: Competitive proliferation assays, result stated for all cell lines together; assay type: cell-based, mouse; details: all tested cell lines, competitive co-culture
Method: as §1

[3] = system: NIH 3T3, EPP2 and MR125 cells; experiment: Transcriptional profiling (QuantSeq) for off-target effects; assay type: cell-based, mouse; details: cells expressing ARTi-shRNAs vs empty vector control, no target gene expression
Method: To directly quantify off-target effects of the top 3 ARTi-shRNAs, transcriptome profiling in NIH 3T3, EPP2 and MR125 cells expressing ARTi-shRNAs or empty vector control was performed. For the unbiased identification of ARTi shRNA off-targets NIH-3T3, EPP2 and MR125 cells were retrovirally transduced with shRNAmir expression plasmids and selected for shRNA expression using G418 Sulfate (0.5 mg/mL for EPP2 and NIH 3T3 and 1 mg/mL for MR125, respectively; Gibco). 1.5×106 (NIH 3T3 and EPP2) or 2×106 (MR125) cells were pelleted, washed with PBS, lysed, treated with DNAse I and whole RNA was extracted using magnetic beads (in-house) and a KingFisher Duo Prime Purification System (ThermoFisher). Next generation sequencing libraries were prepared using QuantSeq 3′ mRNA-Seq Library Prep Kit (Lexogen) according to manufacturer's instructions and sequenced on a HiSeq2500 platform (Illumina).
RefSeq genes and 3′-UTR annotations were prepared from the UCSC table browser (https://genome.ucsc.edu/cgi-bin/hgTables, May 2016). […] Reads were aligned to the GRCm38 primary assembly using Slamdunk v0.2.410 in QuantSeq mode (slamdunk map-5 12-n 100-q) and alignments were filtered to recover multimappers with the acquired 3′-UTR set (slamdunk filter-b). Reads were quantified against said 3′-UTR annotation using featureCounts v1.5.0-p211 using stranded counting and counting multimapping reads (−M ˜s 1). […]

[4] = system: EGFR^del19::dsRed::ARTi; experiment: Western blot of doxycycline induced knockdown in PC-9 cells; assay type: cell-based; details: endogenous EGFR knocked out, doxycycline induced expression
Method: The EGFR^del19::Linker::dsRed::ARTi construct was transduced into EGFR^del19dependent PC-9 cells. The endogenous EGFR gene was then knocked out using CRISPR/Cas9, making the PC-9 cells dependent on EGFR^del19::dsRed::ARTi. PC-9 cell pellets for different genetic backgrounds and treatments were lysed in triton lysis buffer, sonicated, and stored at −80° C. until for protein detection, the pellets were thawed on ice, followed by 15 minutes centrifugation at 13,000 rpm at 4° C. Then, cell lysates were loaded onto a 12% pre-casted SDS-polyacrylamide gel electrophoresis and proteins were transferred onto a nitrocellulose membrane and PDVF-membrane, respectively. Both membranes were probed with the respective primary antibodies overnight. The next day, the secondary antibodies conjugated with fluorescent dye were added and the proteins were detected by the Odyssey detection system.

Row | Molecule | growth compared to non-transduced cells in competitive co-culture [1] | growth compared to non-transduced cells in competitive co-culture ([1]; listed as ARTi.6634) | percentage of shRNA expressing cells over time / toxicity [2] | transcriptional effects / responses (principal component analysis) [3] | EGFR^del19::dsRed::ARTi protein levels [4]
1 | ARTi-shRNA 6634: ARTi-shRNAmir, antisense RNA UUCGAUUAAAACAUCAUCCGGA (SEQ ID NO: 10), 97 mer SEQ ID NO: 22 (nucleic acid) UGCUGUUGACAGUGAGCGCCCGGAUGAUGUUUUAAUCGAAUAGUGAAGCCACAGAUGUAUUCGAUUAAAACAUCAUCCGGAUGCCUACUGCCUCGGA | growth disadvantage; also recorded: adverse effect | considerable growth disadvantage | – | – | –
2 | ARTi-shRNA 6570: ARTi-shRNAmir, antisense RNA UUCGAUAACAAUAUCAUCCGGA (SEQ ID NO: 6), 97 mer SEQ ID NO: 18 (nucleic acid) UGCUGUUGACAGUGAGCGCCCGGAUGAUAUUGUUAUCGAAUAGUGAAGCCACAGAUGUAUUCGAUAACAAUAUCAUCCGGAUGCCUACUGCCUCGGA | – | – | no considerable toxicity | only mild transcriptional responses | reduction
3 | ARTi-shRNA 6786: ARTi-shRNAmir, antisense RNA UUCGUAUACAAUAUCAUCCGGA (SEQ ID NO: 12), 97 mer SEQ ID NO: 24 (nucleic acid) UGCUGUUGACAGUGAGCGCCCGGAUGAUAUUGUAUACGAAUAGUGAAGCCACAGAUGUAUUCGUAUACAAUAUCAUCCGGAUGCCUACUGCCUCGGA | – | – | no considerable toxicity | only mild transcriptional responses | –
